According to US20230008090A1:

How the values were obtained:
[1] = biological target: cynomolgus monkey EGFR on CHOK1-cynoPro1 (EGFR+/CD3-) cells (cynomolgus monkey); assay: flow cytometry on CHOK1-cynoPro1 cells
[2] = biological target: human EGFR on tumor cells (A431, HT-29, MCF-7) (human) (UniProt P00533); assay: flow cytometry on A431 (EGFR+/CD3-) cells
[3] = biological target: human CD3 on Jurkat.2B8 (CD3+/EGFR-) cells (human) (UniProt P07766); assay: flow cytometry on Jurkat.2B8 (CD3+/EGFR-) cells
Sequence of human CD3 on Jurkat.2B8 (CD3+/EGFR-) cells (human) (P07766 23-207): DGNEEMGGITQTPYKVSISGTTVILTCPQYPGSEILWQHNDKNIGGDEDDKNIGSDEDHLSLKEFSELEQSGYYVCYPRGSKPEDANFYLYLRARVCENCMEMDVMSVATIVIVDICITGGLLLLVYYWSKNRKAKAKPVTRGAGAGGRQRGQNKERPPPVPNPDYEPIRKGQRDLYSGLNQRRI

[4] = biological target: cynomolgus monkey CD3 on cynomolgus monkey PBMC / T cells (cynomolgus monkey) (UniProt Q95LI5); assay: flow cytometry on cyno T cells (cynomolgus monkey PBMC)
Sequence of cynomolgus monkey CD3 on cynomolgus monkey PBMC / T cells (cynomolgus monkey) (Q95LI5 22-198): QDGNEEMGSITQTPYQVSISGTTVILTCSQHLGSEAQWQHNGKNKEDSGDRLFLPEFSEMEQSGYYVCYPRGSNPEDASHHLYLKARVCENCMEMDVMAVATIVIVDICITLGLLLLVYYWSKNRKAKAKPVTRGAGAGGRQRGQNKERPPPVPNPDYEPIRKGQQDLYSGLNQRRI

IgG4 isotype control (antibody) showed a Top MFI [1] of 38 MFI, a Top MFI [2] of 137 MFI and a Top MFI [3] of 235 MFI. The Top MFI [4] was 210 MFI.
